Source: patent US20180237511A1 (Sanofi, published 2018)

Legend:
[1] = molecular target: T1, human beta-dystroglycan extracellular domain (soluble) (human, UniProt Q14118 654-749); experiment: SPR, antibody on Protein G chip, beta-DG in flow, 1:1 model (table title says laminin-2; paragraph 445 says human beta-DG)
T1 construct: extracellular domain; The expression construct of soluble human beta-DG is not described (only the mouse one); also called hBeta-DG; hbeta-DG
T1 sequence (looked up): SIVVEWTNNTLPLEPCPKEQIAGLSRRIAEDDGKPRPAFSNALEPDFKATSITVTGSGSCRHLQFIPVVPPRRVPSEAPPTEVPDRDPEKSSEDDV
Experimental: Data was evaluated with a 1:1 binding model using the BIAevaluation software.
SPR was used as described above to analyze the kinetics of triAb binding to laminin-2 (Table N) or beta-DG (Table O).

[2] = molecular target: T1, human beta-dystroglycan extracellular …; experiment: dual binding sandwich ELISA on coated human beta-DG, read out through LG4/5-mFc (5 ug/mL)
Experimental: A dual binding sandwich ELISA was performed by coating Thermo Nunc Immobilized SA 96 well plates with either 2 ug/mL of biotinylated N′Avi-HPC4-human LG4/5 or biotinylated human-beta DG-HPC4-Avi-C′. After overnight incubation at 4° C., the plates were blocked with PBS+1% BSA+0.1% Tween for 1 hour at room temperature. After washing (BioTek ELx405 Select CW) with PBS, the trivalent or parental antibodies were added to the plate started at 8 ug/mL and a 2-fold dilution was performed across the plate, antibody was incubated for 1 hour at room temperature. After washing, the second antigen of beta-DG-mFc (FIG. 1A) or LG4/5-mFc was added at 5 ug/mL. Following the second antigen, a secondary antibody of donkey anti-mouse (Jackson ImmunoResearch) at a 1:2,000 dilution was added for 30 minutes. ABTS was resuspended in ABTS buffer (Roche) and added to the wells for detection. Resulting signal was read with the Perkin Elmer EnVision Multimode Plate Reader at 405 nm.
To show binding of the triAbs to both antigens, a dual binding sandwich ELISA was performed as described above using 2 ug/mL of biotinylated N′Avi-HPC4-human LG4/5 (FIG. 14A) or biotinylated human-beta DG-HPC4-Avi-C′ (FIG. 14B).

[3] = molecular target: T2, Fabrazyme (agalsidase beta, Genzyme) (UniProt P06280 32-429); experiment: dot blot: protein dotted on nitrocellulose (250 to .016 ng), probed with AS19
T2 construct: Negative control protein on the dot blots
T2 sequence (looked up): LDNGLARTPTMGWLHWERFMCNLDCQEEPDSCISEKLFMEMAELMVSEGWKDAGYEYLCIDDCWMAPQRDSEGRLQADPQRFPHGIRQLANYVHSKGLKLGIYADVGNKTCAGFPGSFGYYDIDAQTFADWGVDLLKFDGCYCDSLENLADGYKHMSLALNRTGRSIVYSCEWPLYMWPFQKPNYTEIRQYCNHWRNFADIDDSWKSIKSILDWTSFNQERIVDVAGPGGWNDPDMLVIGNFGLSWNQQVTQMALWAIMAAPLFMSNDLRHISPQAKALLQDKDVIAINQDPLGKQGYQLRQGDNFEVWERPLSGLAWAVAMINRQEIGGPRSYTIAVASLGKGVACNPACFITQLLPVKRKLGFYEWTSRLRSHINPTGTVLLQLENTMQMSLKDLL

[4] = molecular target: T3, murine beta-dystroglycan extracellular domain (mbeta-DG ECD), HPC4 tagged (mouse, UniProt Q62165 652-746); experiment: SPR (Biacore) kinetics; mAb immobilized, mBeta-DG in flow
T3 construct: range 652-746; Made in E. coli as MBP fusion; MBP cleaved off with TEV protease; also called mbeta-DG-HPC4; murine beta-DG; not shown: C-terminal HPC4 tag
T3 sequence (looked up): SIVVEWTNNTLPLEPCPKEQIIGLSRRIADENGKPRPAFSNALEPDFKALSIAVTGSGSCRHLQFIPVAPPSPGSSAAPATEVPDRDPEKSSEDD

[5] = molecular target: T3, murine beta-dystroglycan extracellular …; experiment: SPR (Biacore) kinetics, antibody as ligand on the chip, sample mBDg in flow, fit 1:1 Binding
[6] = molecular target: T1, human beta-dystroglycan extracellular …; experiment: SPR (Biacore) kinetics; mAb immobilized, hBeta-DG in flow

B1: triAb 3407 (bispecific antibody)
light 1: EIVLTQSPDFLSVTPKEKVTLTCRASQSISNNLHWYQQKSDQSPKLLIKYASQSISGIPSRFSGSGSGTDFTLTINSVEAEDAATYFCQQSKSWPRTFGGGTKLEIKDKTHTEIVLTQSPDFLSVTPKEKVTLTCRASQSISNNLHWYQQKSDQSPKLLIKYASQSISGIPSRFSGSGSGTDFTLTINSVEAEDAATYFCQQSKSWPRTFGGGTKLEIKDKTHTRTVAAPSVFIFPPSDEQLKSGTASVVCLLNNFYPREAKVQWKVDNALQSGNSQESVTEQDSKDSTYSLSSTLTLSKADYEKHKVYACEVTHQGLSSPVTKSFNRGEC
heavy 1: EVQLVESGGGLVKPGGSLRLSCAASGFTFSSYTMSWVRQAPGKGLEWVASISSSGSNTYYPDSVKGRFTISRDNAKNNLYLQMNSLRAEDTALYYCARFDYGSSLDSWGQGTLLTVSSDKTHTEVQLVESGGGLVKPGGSLRLSCAASGFTFSSYTMSWVRQAPGKGLEWVASISSSGSNTYYPDSVKGRFTISRDNAKNNLYLQMNSLRAEDTALYYCARFDYGSSLDSWGQGTLLTVSSDKTHTASTKGPSVFPLAPSSKSTSGGTAALGCLVKDYFPEPVTVSWNSGALTSGVHTFPAVLQSSGLYSLSSVVTVPSSSLGTQTYICNVNHKPSNTKVDKKVEPKSCDKTHTCPPCPAPELLGGPSVFLFPPKPKDTLYITREPEVTCVVVDVSHEDPEVKFNWYVDGVEVHNAKTKPREEQYNNASRVVSVLTVLHQDWLNGKEYKCKVSNKALPAPIEKTISKAKGQPREPQVYTLPPCRDELTKNQVSLWCLVKGFYPSDIAVEWESNGQPENNYKTTPPVLDSDGSFFLYSKLTVDKSRWQQGNVFSCSVMHEALHNHYTQKSLSLSPG
heavy 2: QVQLVQSGAEVVKPGSSVKVSCEASGFTFTDSVITWVRQRPGQGLEWIGEIYPGSGNFYYNEKFQGRVTITADKSTSTAYMELSSLRSEDTAVYFCAMRRSSWGQGTLVTVSSASTKGPSVFPLAPSSKSTSGGTAALGCLVKDYFPEPVTVSWNSGALTSGVHTFPAVLQSSGLYSLSSVVTVPSSSLGTQTYICNVNHKPSNTKVDKKVEPKSCDKTHTCPPCPAPELLGGPSVFLFPPKPKDTLYITREPEVTCVVVDVSHEDPEVKFNWYVDGVEVHNAKTKPREEQYNNASRVVSVLTVLHQDWLNGKEYKCKVSNKALPAPIEKTISKAKGQPREPQVCTLPPSRDELTKNQVSLSCAVKGFYPSDIAVEWESNGQPENNYKTTPPVLDSDGSFFLVSKLTVDKSRWQQGNVFSCSVMHEALHNRFTQKSLSLSPG
light 2: DVVMTQTPLSLSVTPGQPASISCKSSQTIVHSNSKTYLEWYLQKPGQSPQLLIYKVSSRFSGVPDRFSGSGSGTDFTLKISRVEAEDVGVYYCFQGSHVPLTFGQGTKLEIKRTVAAPSVFIFPPSDEQLKSGTASVVCLLNNFYPREAKVQWKVDNALQSGNSQESVTEQDSKDSTYSLSSTLTLSKADYEKHKVYACEVTHQGLSSPVTKSFNRGEC
notes: knob-in-hole, NNAS, YTE and RF variants
In the case of B1, the Kd [1] is reported as 2.08 nM, the koff [1] is reported as 0.00326 s⁻¹ and the kon [1] is reported as 1.57e+06 M⁻¹ s⁻¹. The “EC50 (read off the curve)” value [2] was about 0.1 µg/mL.

B2: anti-beta-DG antibody derived from hybridoma clone AS19 (antibody, V domains shown)
VH: QVQLQQSGPELVKPGASVKMSCKASGFTFTDSVISWVKQRTGQGLEWIGEIYPGSGSIYYNEKFKGKATLTADKSSNTAYMQLRSLTSEDSAVYFCAMRRSYWGQGTLVTVSA
VL: DVLMTQTPLSLPVSLGDQASISCRSSQSIVHSNGNTYLEWYLQKPGQSPKLLIYKVSNRFSGVPDRFSGSGSGTDFTLKISRVEAEDLGVYYCFQGSHVPLTFGAGTKLELK
notes: Hybridoma monoclonal antibody (detected with anti-mouse IgG)
B2 was tested, and the binding result [3] was “no binding (tested: 250 ng)”, the Kd [4] was 3.38 nM and the koff [5] was 0.000667 s⁻¹. For the same binder, the kon [5] was 110000 M⁻¹ s⁻¹ and the Kd [6] was 2.06 nM.
